Test results as given in US20130189255A1 (GlaxoSmithKline, published 2013).

B1: 2xGLP-1 (7-37) A8G DOM7h-14 dAb fusion (DAT0114) (other)
chain: HGEGTFTSDVSSYLEGQAAKEFIAWLVKGRHGEGTFTSDVSSYLEGQAAKEFIAWLVKGRDIQMTQSPSSLSASVGDRVTITCRASQWIGSQLSWYQQKPGKAPKLLIMWRSSLQSGVPSRFSGSGSGTDFTLTISSLQPEDFATYYCAQGAALPRTFGQGTKVEIKA
notes: also called 2xGLP-1 (7-37) A8G DOM7h-14 fusion; 2xGLP-1 A8G DOM7h-14 fusion
B2: Rat serum albumin (other, UniProt P02770 25-608, looked up)
chain: EAHKSEIAHRFKDLGEQHFKGLVLIAFSQYLQKCPYEEHIKLVQEVTDFAKTCVADENAENCDKSIHTLFGDKLCAIPKLRDNYGELADCCAKQEPERNECFLQHKDDNPNLPPFQRPEAEAMCTSFQENPTSFLGHYLHEVARRHPYFYAPELLYYAEKYNEVLTQCCTESDKAACLTPKLDAVKEKALVAAVRQRMKCSSMQRFGERAFKAWAVARMSQRFPNAEFAEITKLATDVTKINKECCHGDLLECADDRAELAKYMCENQATISSKLQACCDKPVLQKSQCLAEIEHDNIPADLPSIAADFVEDKEVCKNYAEAKDVFLGTFLYEYSRRHPDYSVSLLLRLAKKYEATLEKCCAEGDPPACYGTVLAEFQPLVEEPKNLVKTNCELYEKLGEYGFQNAVLVRYTQKAPQVSTPTLVEAARNLGRVGTKCCTLPEAQRLPCVEDYLSAILNRLCVLHEKTPVSEKVTKCCSGSLVERRPCFSALTVDETYVPKEFKAETFTFHSDICTLPDKEKQIKKQTALAELVKHKPKATEDQLKTVMGDFAQFVDKCCKAADKDNCFATEGPNLVARSKEALA
notes: also called RSA
B3: GLP-1 (7-37) A8G, helical linker, DOM7h-14 dAb fusion (DAT0120) (other)
chain: HGEGTFTSDVSSYLEGQAAKEFIAWLVKGRGKEAAAKEAAAKEAAAKELAAKEAAAKEAAAKEAAAKELAADIQMTQSPSSLSASVGDRVTITCRASQWIGSQLSWYQQKPGKAPKLLIMWRSSLQSGVPSRFSGSGSGTDFTLTISSLQPEDFATYYCAQGAALPRTFGQGTKVEIKR
notes: also called GLP-1 A8G, helical linker, DOM7h-14 fusion; GLP-1 (7-37) A8G, helical linker, DOM7h-14 fusion

Experiments:
Rat serum albumin = target: B2; assay: SPR (Biacore), albumin immobilised on CM5 chip, fusion in solution
Experimental: (§1) The analysis was performed using a CMS Biacore chip (carboxymethylated dextran matrix) that was coated with serum albumin. About 1000 resonance units (RUs) of each serum albumin to be tested (human, rat and mouse serum albumin) was immobilised in acetate buffer pH 5.5. […] Affinity (KD) was calculated from the BIACORE traces by fitting on-rate and off-rate curves to traces generated by concentrations of dAb in the region of the KD.

Human serum albumin = target: T1, Human serum albumin (human, UniProt P02768 25-609); assay: as above
T1 construct: also called HSA
Experimental: as §1

Mouse serum albumin = target: T2, Mouse serum albumin (mouse, UniProt P07724 25-608); assay: as above
T2 construct: also called MSA
T2 sequence (P07724 25-608 limits assumed): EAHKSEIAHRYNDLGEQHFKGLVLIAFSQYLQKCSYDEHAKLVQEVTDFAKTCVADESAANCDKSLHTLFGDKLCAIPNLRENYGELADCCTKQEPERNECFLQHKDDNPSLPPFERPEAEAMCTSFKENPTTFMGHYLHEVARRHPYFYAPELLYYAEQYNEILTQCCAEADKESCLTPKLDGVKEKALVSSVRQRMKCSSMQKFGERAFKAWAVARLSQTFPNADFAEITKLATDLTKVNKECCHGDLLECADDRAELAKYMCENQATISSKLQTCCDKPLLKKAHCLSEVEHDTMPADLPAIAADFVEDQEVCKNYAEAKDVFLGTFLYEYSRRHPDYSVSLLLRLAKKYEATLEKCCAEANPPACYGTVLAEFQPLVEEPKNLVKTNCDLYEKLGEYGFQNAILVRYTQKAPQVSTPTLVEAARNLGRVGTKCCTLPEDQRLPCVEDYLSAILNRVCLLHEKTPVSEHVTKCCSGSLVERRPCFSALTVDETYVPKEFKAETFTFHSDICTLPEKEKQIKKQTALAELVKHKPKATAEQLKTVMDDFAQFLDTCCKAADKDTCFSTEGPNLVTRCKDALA
Experimental: as §1

[1] = target: T3, Exendin 4 (G4S linker)3 DOM7h-14 dAb fusion (DAT0115); assay: SPR (Biacore), biotinylated albumin on streptavidin chip, fusion in solution
T3 construct: also called Exendin 4 (G4S)3 DOM7h-14 fusion
Experimental: The analysis was performed using a streptavidin chip (SA) coated with biotinylated serum albumin. 200-1000 resonance units (RUs) of each serum albumin was immobilised on the chip. Flow cell 1 was uncoated, flow cell 2 was coated with HSA, flow cell 3 was coated with RSA and flow cell 4 was coated with CSA.
Affinity (KD) was calculated from the BIACORE traces by fitting on-rate and off-rate curves to traces generated by concentrations of dAb in the region of the KD.

Row | Binder | Kd (Rat serum albumin) [nM] | Kd (Human serum albumin) [nM] | Kd (Mouse serum albumin) [nM] | Kd [1] [nM]
1 | B1 | 700 | 150 | 130 | 
2 | B2 |  |  |  | 2000
3 | B3 | 800 | 110 | 110 | 
